Molecular target: Rap1B (Rap1B portion of the EPAC2-GFP-RAP1B sensor) (Homo sapiens (Human)) (UniProt P61224)
Assay: cell-based or functional assay

Rap1B (Rap1B portion of the EPAC2-GFP-RAP1B sensor) (Homo sapiens (Human)), sequence (P61224 other isoform, or with tags, fused parts or gaps limits assumed): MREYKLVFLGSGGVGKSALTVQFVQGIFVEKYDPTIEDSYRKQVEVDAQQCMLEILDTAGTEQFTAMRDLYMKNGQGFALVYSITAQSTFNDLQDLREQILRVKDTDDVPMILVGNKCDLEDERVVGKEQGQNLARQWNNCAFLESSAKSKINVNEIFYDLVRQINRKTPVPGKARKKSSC

Row | Substance | Relative Change in Fluorescence in Response to Isoproternol (EPAC2gfpRAP1B sensor) [%] | change in fluorescence of the tethered Epac2-cpEGFP-Rap1B sensor in response to drug (isoproterenol), HEK 293 cells [%]
1 | Epac2 (Epac2 portion of the EPAC2-GFP-RAP1B sensor) (from UniProt Q8WZA2 1-1011) | 26 | 
2 | Epac2 (Epac2 portion of the EPAC2-GFP-RAP1B sensor) (from UniProt Q8WZA2 1-1011) (enzyme) |  | 25

— patent US20160274109A1
